Measurements: the nanobody polyreactivity screen of Harvey et al. (2022)

Test: yeast display, Sf9 membrane polyspecificity reagent, FACS + sequencing; frameworks hold sequencing errors
How it was run: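 Nanobodies came from a synthetic yeast display library in Saccharomyces cerevisiae BJ5465, induced with galactose for 36–48 hours and stained for 1 hour at 4 °C with 10% biotinylated, detergent-solubilized Sf9 membrane reagent. Cells were enriched on streptavidin microbeads and then FACS-sorted, with low and high (top ~1%) gates set on anti-HA fluorescence for expression and streptavidin fluorescence for reagent binding. Each polyreactivity label reflects the gate a clone came from. Genes were amplified by colony PCR, sequenced by MiSeq 2 × 250 and filtered by CDR length.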

Sequence | polyreactivity (PSR sort gate)
QVQLVESGGGLVQAGGSLRLSCAASGSTFVYNARGWYRQAPGKERELVAAISRRGGSTYYADSVKGRFTISRDNAKNTVYLQMNSLKPEDTAVYYCAADQYRTNSYRYDYWGQGTQVTVSS | low polyreactivity
QVQLVESGGGLVQAGGSLRLSCAASGSTFVYNTMGWYRQAPGKERELVAAISKSGTNTLYADSVKGRFTISRDNAKNTVYLQMNSLKPEDTAVYYCAVRSVPRWFTELDYWGQGTQVTVSS | low polyreactivity
QVQLVESGGGLVQAGGSLRLSCAASGSTFVYYAMGGYRQAPGKERELDAAITSSGVRTYYADSVKGRFTISRDNAKNTVYLQMNSLKPEVTAVYYCAKRSTRLYSFTYQGYGYWGQGTQVTVSS | high polyreactivity
QVQLVESGGGLVQAGGSLRLSCAASGSTFVYYAMGWYRQAPGKEREFVAAISISTGSTYYADSVKGRFTISRDNAKNTVYLQMNSLKPEDTAVYYCAVDWFLGGYDDLDYWGQGTQVTVSS | low polyreactivity
QVQLVESGGGLVQAGGSLRLSCAASGSTFVYYAMGWYRQAPGKEREFVAAISTNGGSTYYADSVKGRFTISRDNAKNTVYLQMNSLKPEDTAVYYCAARWYWGQGTQVTVSS | high polyreactivity
QVQLVESGGGLVQAGGSLRLSCAASGSTFVYYDMGGYRPAPGKERELVADISDSGGSTNYADSVKGRFTISRDNAKNTVYLHMNSLKPEDTAVYYCAADSADPTEYDYWGQGTQVTVSS | low polyreactivity
QVQLVESGGGLVQAGGSLRLSCAASGSTFWAYAMGWSRQAPGKERELVAAITSGGSTYADSVKGRFTISRDNAKNTVYLQMNSLKPEDTAVYYCAADVYYSGWWFDYWGQGTQVTVSS | high polyreactivity
QVQLVESGGGLVQAGGSLRLSCAASGSTFWAYVMGWYRQAPGKESELVAAISKSGVRTHYADSVKGRFTISRDNAKNTVYLQMNSLKPEDTAVYYCAAEWSWGPYRFDYWGQGTQVTVSS | high polyreactivity
QVQLVESGGGLVQAGGSLRLSCAASGSTFWDYTMGWYRQAPGKERELVAAINYSDGSTYYADSVKGRFTISRDNAKNTVYLQMNSLKPEDTAVYYCAAGSDPTGRRYDYWGQGTQVTVSS | low polyreactivity
QVQLVESGGGLVQAGGSLRLSCAASGSTFWEYVMGWYRQAPGKERELVAAISDSGGSTYYADSVKGRFTISRDNAKNTVYLQMNSLKPEDTAVYYCNADWSWYNYYDFDYWGQGTQVTVSS | low polyreactivity
QVQLVESGGGLVQAGGSLRLSCAASGSTFWFYAMGWYRQAPGKERELVAANSRSSGSTYYADSVKGRFTISRDNAKNTVYLQMNSLKPEDTAVFSCAAVEPDRDYGYWGQGTQVTVSS | low polyreactivity
QVQLVESGGGLVQAGGSLRLSCAASGSTFWFYAMGWYRQAPGKERELVATITIGGRTYADSVKGRFTISRDNAKNTVYLQMNTLKPEDTAVYYCAARRGRLEYVNGRYDYWGQGTQVTVSS | low polyreactivity
QVQLVESGGGLVQAGGSLRLSCAASGSTFWGYGMGWYRQAPGKERELVATINQSAGSTYYADSVKGRFTISRDNAKNTVYLQLNSLNPEDPAAYYCATDLIQGAAPFRYDYWGQGTQVTVSS | low polyreactivity
QVQLVESGGGLVQAGGSLRLSCAASGSTFWGYTMGWYRQAPGKERELVAAITGSGGSTNYADSVKGRFTISRDNANNTVYLQMNSLKPEDTAVYYCATQGITPSNSYDYWGQGTQVTVSS | low polyreactivity
QVQLVESGGGLVQAGGSLRLSCAASGSTFWHNAMGWYRTAHGKERELVAGISSIGGRTYYADSVKGRFTISRDNAKNTVYLQMNSLKQEDTAVYYCAARYRRTIPWFAPGTDHNYWGQGTQVTVSS | high polyreactivity
QVQLVESGGGLVQAGGSLRLSCAASGSTFWHYAMGWYRQAPGKERELVAAISSGGGRTYYADSVKGRFTISRDNAKNTVYLQMNSLKPEDTAVYYCAARYYFYDYWGQGTQVTVSS | high polyreactivity
QVQLVESGGGLVQAGGSLRLSCAASGSTFWINTMGWYRQAPGKERELVAAITRSGGNTYYADSVKGRFTISRDNAKNTVYLQMNSLKPEDTAVYYCAAAYTRKYVTHGYWGQGTQVTVSS | high polyreactivity
QVQLVESGGGLVQAGGSLRLSCAASGSTFWIYAMGWYRQPPGKERELVAAISWSTGRTYYADSVKGRFTISRDNAKNTVYLQMNSLKPEDTAVYYCNAGPQHNTLKLFYYWGQGTQVTVSS | low polyreactivity
QVQLVESGGGLVQAGGSLRLSCAASGSTFWLNAMGWYRQAPGKEREYVAAITWSSGSTYYADSVKGRFTISRDNAKNTVYLQMNSLKPEDTAVYYCAADGRYVRIRGDYWGQGTQVTVSS | low polyreactivity
QVQLVESGGGLVQAGGSLRLSCAASGSTFWLYAIGWYRQAPGTERELVAAIRSGDRTNYADSVKGRFTISRDNAKKTVYLEMNSLKPEDTAVYYCAAVAYLNWTPQYYWGQGTQVTVSS | low polyreactivity
QVQLVESGGGLVQAGGSLRLSCAASGSTFWLYVMGWYRQAPGKERELVAAISSSGGRTYYADSVKGRFTISRDNAKNTVYLQMNSLKPEDTAVYYCNKYGTALWRYYYWGQGTQVTVSS | high polyreactivity
QVQLVESGGGLVQAGGSLRLSCAASGSTFWNYAMGWYRQAPGKERELVAAISQRGGSTYYADSVKGRFTISRDNAKNTVYLQMNSLKPEDTAVYYCNIDYAGELDYWGQGTQVTVSS | high polyreactivity

Sequence | polyreactivity (PSR sort gate)
QVQLVESGGGLVQAGGSLRLSCAASGSTFWPNAMGWYRQAPGKERELVAAITGGGGTNYADSVKGRFTISRDNAKNTVYLQMNSLKPEDTAVYYCAAKKVNSRSHVKYYYWGQGTQVTVSS | high polyreactivity
QVQLVESGGGLVQAGGSLRLSCAASGSTFWPYAMGWYRQAPGKERELVAAITRSGGSTYYADSVKGRFTISRDNAKNTVYLQMNSLKPEDTAVYYCAKYTSSRFEYDYWGQGTQVTVSS | low polyreactivity
QVQLVESGGGLVQAGGSLRLSCAASGSTFWSYAMGWYRQAPGKERELVADIRWSGDGTYYADSVKGRFTISRDNAKITVYLQMNSLKPEDTAVYYCAADYFPVNSYGYWGQGTQVTVSS | low polyreactivity
QVQLVESGGGLVQAGGSLRLSCAASGSTFWSYTMGWYRQAPGKERELVAAIRFSGGSTYYADSVKGRFTISRDNAKNTVYLQMNSLKPEDTAVYYCAAGYYRRPYEYWGQGTQVTVSS | low polyreactivity
QVQLVESGGGLVQAGGSLRLSCAASGSTFWTNAMGWFRHAPGKVRELVATISKTTGRTNYADSEKGRFTISRDNAKNTVYLQMNSLKPEDTAVYYCAAEPYSWDTWVDYDYWGIGTQVTVSS | low polyreactivity
QVQLVESGGGLVQAGGSLRLSCAASGSTFWTNDMGWYRQAPGKERELVAAISQSAGDTYYADSVKGRFTISRDNAKNTVYLQMNSLKPEDTAVYYCAADLVFYPFTWDGYYYWGQGTQVTVSS | low polyreactivity
QVQLVESGGGLVQAGGSLRLSCAASGSTFWVNAMGWYRQAPGKVRELVAAIRRGGSTKYADSVKGRFTISRDNAKNTFYLQINSLKPEDTAVSYCAADAPGHEYYYWGQGTQVTVSS | high polyreactivity
QVQLVESGGGLVQAGGSLRLSCAASGSTFWVYAMGWYRQAPGKERELVATISRGGSTNYADSVKGRFTISRDNAKNTVYLQMNSLKPEDTAVYYCAAPRFYGYGYEYCGQGTQVTVSS | low polyreactivity
QVQLVESGGGLVQAGGSLRLSCAASGSTFWWNTMGWYRQAPWKERELVADIRTSGGGTYYADSVKGRFTISRDNAKNTVYLQMNSLKPEDTAVYYCNADPKWEMGSWGQGTQVTVSS | low polyreactivity
QVQLVESGGGLVQAGGSLRLSCAASGSTFWWNTRGWYRQAPGKERELVADIRTSGGGTYYADSVKGRFTISLDNAKNTFYLQMNSLKPEDTAVYYCNADPKWEMGSWGQGTQVTVSS | low polyreactivity
QVQLVESGGGLVQAGGSLRLSCAASGSTFWYYAMGWYRQAPGKESELVAGITQSGGSTYYADSVKGRFTISRDNAKNTVYLQMNSLKPEDTAVYYCAKDGRVSGDFDYWGQGTQVTVSS | low polyreactivity
QVQLVESGGGLVQAGGSLRLSCAASGSTFWYYAMGWYRQEPGKERELVASITYSGGSTYYADSVKGRFTISRDNAKNTVYLQMNSLKPEDTAVYYCAAQSPAYYTKSYWGQGTQVTVSS | low polyreactivity
QVQLVESGGGLVQAGGSLRLSCAASGSTFWYYGMGWYRQAPGKERELVAAITRGGSTYYADSVKGRFTISRDNAKNTVYLQMISLNPEDTAVYYCAAGISVRWSPSYYYWGQGTQVTVSS | high polyreactivity
QVQLVESGGGLVQAGGSLRLSCAASGSTFWYYVMGWYRQAPGKERELVAAIDWTGDSTYYADSVKGRFTISRDNAKNTVYLQMNSLKPVDTAVYYCAAQKYYPYSYYLNNDYWGLGTQVTVSS | low polyreactivity
QVQLVESGGGLVQAGGSLRLSCAASGSTFYANAMGWYRQAPGKERELVAAISSRGGSTSYADSVKGRFTISRDNAKNTVYLQMNSLKPEDTAVYYCNKVTRYYYRGFDYWGQGTQVTVSS | high polyreactivity
QVQLVESGGGLVQAGGSLRLSCAASGSTFYANAMGWYRQAPGKERELVAAITRSGAGTYYADSVKGRFTISRDNAKNTVYLQMNSLKPEDTAVYYCAKRTKTPTGYVWGGYDYWGQGTQVTVSS | high polyreactivity
QVQLVESGGGLVQAGGSLRLSCAASGSTFYANTMGWYRTAPGKERELVAAITYGGGNTYYADSVKGRFTISRDNAKNTVYLQMNSLKPEDTAVYYCAARDYVSYYTRFDYWGQGTQVTVSS | high polyreactivity
QVQLVESGGGLVQAGGSLRLSCAASGSTFYAYAMGWYRQAPGKERELVAAIDSGGSTYYADSVKGRFTISRDNAKNTFYLEMNSLKPEDTAVYYCAVRHRYTRAYWGRDYWGQGTQVTVSS | low polyreactivity
QVQLVESGGGLVQAGGSLRLSCAASGSTFYAYAMGWYRQAPGKERELVAAINSVGSTYYADSVKGRFTISRDNAKNTVYLQMNSLKPEDTAVYYCARGVDYPTSQPPYFRHDYWGQGTQVTVSS | low polyreactivity
QVQLVESGGGLVQAGGSLRLSCAASGSTFYAYTKGWSRQAPGKERELVADISSGGGTYYADSVKGRFTISRDNAKNTVYLQMNSLKPEDTAVYYCNADWRVGRQLSKAKIPYDYWGQGTQVTVSS | low polyreactivity
QVQLVESGGGLVQAGGSLRLSCAASGSTFYAYVMGWYRQAPGKERELVAAITSAGSTYYADSVKGRFTISRDNAKNTVYLQMNSLKPEDTAVYYCAAYYIVHSRQTQGFERYDYWGQGTQVTVSS | low polyreactivity
